Reference: US10253078 (ZEALAND PHARMA A S, dated 2019)
Like-named read-outs stand apart in the source and are kept apart here. Starred links: 1 amine or outer side, 2 acyl side, 3 side chain; linkers in the order of their positions; H or OH if unused. Non-standard residues stand in square brackets, D forms with d. Groups on a side chain read outwards from the residue. *: point of attachment. C20 diacid = O=C(O)CCCCCCCCCCCCCCCCCCC(=O)*; γGlu = O=C(O)[C@H](CCC(=O)[*:2])N[*:1]; Aib = CC(C)(N)C(=O)O

What was measured:
Test in all cases: cell-based or functional assay
[1] = target: human GLP-1 receptor (human) (UniProt P43220)
Sequence of human GLP-1 receptor (human) (P43220 24-463): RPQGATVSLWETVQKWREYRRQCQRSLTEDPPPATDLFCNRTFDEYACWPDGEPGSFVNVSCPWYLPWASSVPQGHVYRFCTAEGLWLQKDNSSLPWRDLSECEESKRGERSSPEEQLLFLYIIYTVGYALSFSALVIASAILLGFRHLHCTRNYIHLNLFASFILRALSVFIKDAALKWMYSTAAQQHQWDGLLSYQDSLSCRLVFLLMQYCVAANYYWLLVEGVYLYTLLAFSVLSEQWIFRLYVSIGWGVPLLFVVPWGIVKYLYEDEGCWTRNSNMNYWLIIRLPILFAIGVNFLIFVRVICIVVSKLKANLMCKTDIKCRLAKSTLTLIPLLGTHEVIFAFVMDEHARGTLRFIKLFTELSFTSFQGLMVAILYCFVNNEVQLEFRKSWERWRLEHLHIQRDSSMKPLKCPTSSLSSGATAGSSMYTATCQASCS

human GIP receptor [2] = target: T1, human GIP receptor (human, UniProt P48546 22-466)
T1 sequence (looked up): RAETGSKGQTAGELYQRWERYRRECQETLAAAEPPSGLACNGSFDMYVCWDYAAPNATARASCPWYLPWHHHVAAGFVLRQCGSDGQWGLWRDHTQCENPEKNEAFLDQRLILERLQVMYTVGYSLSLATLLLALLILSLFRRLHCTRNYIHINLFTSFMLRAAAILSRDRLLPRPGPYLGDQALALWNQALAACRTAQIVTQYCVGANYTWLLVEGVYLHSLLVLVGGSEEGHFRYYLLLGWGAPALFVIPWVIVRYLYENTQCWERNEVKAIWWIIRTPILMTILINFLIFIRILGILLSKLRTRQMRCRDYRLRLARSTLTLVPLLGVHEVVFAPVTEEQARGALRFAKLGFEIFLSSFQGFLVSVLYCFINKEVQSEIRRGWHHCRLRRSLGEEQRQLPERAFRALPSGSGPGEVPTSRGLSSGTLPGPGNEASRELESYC

human GLP-1 receptor = human GLP-1 receptor (human, UniProt P43220 24-463)
human GIP receptor [3] = target: T1, human GIP receptor; remark: listed apart in the source
human GIP receptor [4] = target: T1, human GIP receptor; remark: listed apart in the source

Exendin-4 (from UniProt P26349 48-86) (peptide)
EC50 hGLP1 R (cAMP, HEK293 cells expressing the GLP-1R) [1]: 4 pM

human GIP (from UniProt P09681 52-93) (ligand)
EC50, hGIP-R level of cAMP (HEK293 cells expressing human GIP R) (human GIP receptor [2]): 3 pM
EC50 hGLP1 R (cAMP, HEK293 cells expressing the GLP-1R) (human GLP-1 receptor): > 100 nM

H-Y[Aib]EGTFISDYSIELDKK([Peg3-Peg3-γGlu-C20 diacid])AAQAFIEWLLAQGPSSGAPPPS-NH2 [Compound 40]
EC50 hGLP1 R (cAMP, HEK293 cells expressing the GLP-1R) (human GLP-1 receptor): > 10 nM
EC50 hGIP R (cAMP, HEK293 cells expressing the GIP R) (human GIP receptor [3]): 0.007 nM
EC50, hGIP-R level of cAMP (HEK293 cells expressing human GIP R) (human GIP receptor [4]): 0.01 nM

H-Y[Aib]EGTFISDYSIELDKK([Peg3-Peg3-γGlu-C20 diacid])AAQDFVNWLLAGPSSGAPPPS-NH2 [Compound 15]
EC50 hGLP1 R (cAMP, HEK293 cells expressing the GLP-1R) (human GLP-1 receptor): > 100 nM
EC50 hGIP R (cAMP, HEK293 cells expressing the GIP R) (human GIP receptor [3]): 0.024 nM
EC50, hGIP-R level of cAMP (HEK293 cells expressing human GIP R) (human GIP receptor [4]): 0.012 nM

H-Y[Aib]EGTFISDYSIELDKK([Peg3-Peg3-γGlu-C20 diacid])AQRAFVEWLLAQGPSSGAPPPS-NH2 [Compound 17]
EC50 hGLP1 R (cAMP, HEK293 cells expressing the GLP-1R) (human GLP-1 receptor): > 3 nM
EC50 hGIP R (cAMP, HEK293 cells expressing the GIP R) (human GIP receptor [3]): 0.016 nM
EC50, hGIP-R level of cAMP (HEK293 cells expressing human GIP R) (human GIP receptor [4]): 0.007 nM

H-Y[Aib]EGTFISDYSIELDKK([Peg3-Peg3-γGlu-C20 diacid])AQRAFIEWLLAQGPSSGAPPPS-NH2 [Compound 18]
EC50 hGLP1 R (cAMP, HEK293 cells expressing the GLP-1R) (human GLP-1 receptor): > 3 nM
EC50 hGIP R (cAMP, HEK293 cells expressing the GIP R) (human GIP receptor [3]): 0.007 nM
EC50, hGIP-R level of cAMP (HEK293 cells expressing human GIP R) (human GIP receptor [4]): 0.006 nM

H-Y[Aib]EGTFISDYSIELDKK([Peg3-Peg3-γGlu-C20 diacid])HQQDFVNYLLAQGPSSGAPPPS-NH2 [Compound 8]
EC50 hGLP1 R (cAMP, HEK293 cells expressing the GLP-1R) (human GLP-1 receptor): > 10 nM
EC50 hGIP R (cAMP, HEK293 cells expressing the GIP R) (human GIP receptor [3]): 0.019 nM
EC50, hGIP-R level of cAMP (HEK293 cells expressing human GIP R) (human GIP receptor [4]): 0.009 nM

B1: Compound 41 (peptide)
peptide: YAEGTFISDYSIELDKKAAQAFIEWLLAQGPSSGAPPPS
modifications: Aib at 2; Lys 17 side chain acylated: K((19-Carboxy-nonadecanoyl)-[(Piperazine-1-yl)-acetyl]-Peg3-Peg3); C-terminal amide (-NH2)
EC50 hGLP1 R (cAMP, HEK293 cells expressing the GLP-1R) (human GLP-1 receptor): > 10 nM
EC50 hGIP R (cAMP, HEK293 cells expressing the GIP R) (human GIP receptor [3]): 0.01 nM
EC50, hGIP-R level of cAMP (HEK293 cells expressing human GIP R) (human GIP receptor [4]): 0.014 nM

H-Y[Aib]EGTFISDYSIELEKK([Peg3-Peg3-γGlu-C20 diacid])AQRAFVEWLLAQGPSSGAPPPS-NH2 [Compound 12]
EC50 hGLP1 R (cAMP, HEK293 cells expressing the GLP-1R) (human GLP-1 receptor): > 3 nM
EC50 hGIP R (cAMP, HEK293 cells expressing the GIP R) (human GIP receptor [3]): 0.009 nM
EC50, hGIP-R level of cAMP (HEK293 cells expressing human GIP R) (human GIP receptor [4]): 0.009 nM

H-Y[Aib]EGTFISDYSIELDKIAAQDFVNWLLAGPSSGAPPPSK([Peg3-Peg3-γGlu-C20 diacid])-NH2 [Compound 16]
EC50 hGLP1 R (cAMP, HEK293 cells expressing the GLP-1R) (human GLP-1 receptor): > 10 nM
EC50 hGIP R (cAMP, HEK293 cells expressing the GIP R) (human GIP receptor [3]): 0.012 nM
EC50, hGIP-R level of cAMP (HEK293 cells expressing human GIP R) (human GIP receptor [4]): 0.016 nM

H-Y[Aib]EGTFISDYSIELEKIAQRAFVEWLLAQK([Peg3-Peg3-γGlu-C20 diacid])-NH2 [Compound 14]
EC50 hGLP1 R (cAMP, HEK293 cells expressing the GLP-1R) (human GLP-1 receptor): > 10 nM
EC50 hGIP R (cAMP, HEK293 cells expressing the GIP R) (human GIP receptor [3]): 0.014 nM
EC50, hGIP-R level of cAMP (HEK293 cells expressing human GIP R) (human GIP receptor [4]): 0.024 nM

H-Y[Aib]EGTFISDYSIELEKIAQRAFVEWLLAQGPSSGAPPPSK([Peg3-Peg3-γGlu-C20 diacid])-NH2 [Compound 13]
EC50 hGLP1 R (cAMP, HEK293 cells expressing the GLP-1R) (human GLP-1 receptor): > 10 nM
EC50 hGIP R (cAMP, HEK293 cells expressing the GIP R) (human GIP receptor [3]): 0.008 nM
EC50, hGIP-R level of cAMP (HEK293 cells expressing human GIP R) (human GIP receptor [4]): 0.014 nM
